Source: US20180291083A1 (IMMATICS BIOTECHNOLOGIES, published 2018)

B1: QPSPARAPAEL (peptide)
peptide: QPSPARAPAEL
B2: SPADHRGYASL (peptide)
peptide: SPADHRGYASL
B3: RPHIPISKL (peptide)
peptide: RPHIPISKL
B4: RPFADLLGTAF (peptide)
peptide: RPFADLLGTAF
B5: QPRLFTMDL (peptide)
peptide: QPRLFTMDL
B6: SPRNLQPQRAAL (peptide)
peptide: SPRNLQPQRAAL
B7: APAPAEKTPV (peptide)
peptide: APAPAEKTPV
B8: SPFSFHHVL (peptide)
peptide: SPFSFHHVL
B9: LPYDSKHQI (peptide)
peptide: LPYDSKHQI
B10: LPKVQSIQL (peptide)
peptide: LPKVQSIQL
B11: MPSSDTTVTF (peptide)
peptide: MPSSDTTVTF
B12: YPGSDRIML (peptide)
peptide: YPGSDRIML
B13: VPNLQTVSV (peptide)
peptide: VPNLQTVSV
B14: SPLSHHSQL (peptide)
peptide: SPLSHHSQL
B15: HSYSSPSTK (peptide)
peptide: HSYSSPSTK
B16: RVFPSPMRI (peptide)
peptide: RVFPSPMRI
B17: RSKEYIRKK (peptide)
peptide: RSKEYIRKK
B18: KTSNIVKIK (peptide)
peptide: KTSNIVKIK
B19: RTYGFVLTF (peptide)
peptide: RTYGFVLTF
B20: KLMETSMGF (peptide)
peptide: KLMETSMGF
B21: KAKKPAGAAK (peptide)
peptide: KAKKPAGAAK
B22: ATGAATPKK (peptide)
peptide: ATGAATPKK
B23: LLWHWDTTQSLK (peptide)
peptide: LLWHWDTTQSLK
B24: KTLPAMLGTGK (peptide)
peptide: KTLPAMLGTGK
B25: KAKAAAKPK (peptide)
peptide: KAKAAAKPK
B26: SVFEGDSIVLK (peptide)
peptide: SVFEGDSIVLK
B27: SVAHLLSKY (peptide)
peptide: SVAHLLSKY
B28: RIYDEILQSK (peptide)
peptide: RIYDEILQSK
B29: VILESIFLK (peptide)
peptide: VILESIFLK
B30: GLLEEALFY (peptide)
peptide: GLLEEALFY
B31: SVYSETSNMDK (peptide)
peptide: SVYSETSNMDK
B32: TTVPHVFSK (peptide)
peptide: TTVPHVFSK
B33: RIKPPGPTAVPK (peptide)
peptide: RIKPPGPTAVPK
B34: SVSSSTHFTR (peptide)
peptide: SVSSSTHFTR
B35: LLNRHILAH (peptide)
peptide: LLNRHILAH
B36: ATKSPAKPK (peptide)
peptide: ATKSPAKPK
B37: KAFNQSSTLTK (peptide)
peptide: KAFNQSSTLTK
B38: SISNLVFTY (peptide)
peptide: SISNLVFTY
B39: KARKSAGAAK (peptide)
peptide: KARKSAGAAK
B40: SVLDLSVHK (peptide)
peptide: SVLDLSVHK
B41: KATGAATPK (peptide)
peptide: KATGAATPK
B42: RMYSQLKTLQK (peptide)
peptide: RMYSQLKTLQK
B43: VVFPFPVNK (peptide)
peptide: VVFPFPVNK
B44: ASTTVLALK (peptide)
peptide: ASTTVLALK
B45: KVYDPVSEY (peptide)
peptide: KVYDPVSEY
B46: ATYNKQPMYR (peptide)
peptide: ATYNKQPMYR
B47: RIKAPSRNTIQK (peptide)
peptide: RIKAPSRNTIQK
B48: RVLTGVFTK (peptide)
peptide: RVLTGVFTK
B49: RVYNIYIRR (peptide)
peptide: RVYNIYIRR
B50: KLNPQQAPLY (peptide)
peptide: KLNPQQAPLY
B51: YINPAKLTPY (peptide)
peptide: YINPAKLTPY
B52: GTDVLSTRY (peptide)
peptide: GTDVLSTRY
B53: ALDQNKMHY (peptide)
peptide: ALDQNKMHY
B54: LTEGHSGNYY (peptide)
peptide: LTEGHSGNYY

Target: T1, HLA-B*07:02 (human)
T1 construct: Peptide-receptive MHC class I monomer made by UV cleavage of a UV-sensitive ligand
Experiment: UV ligand exchange ELISA; exchange yield grade
Source text: (§1) Candidate peptides for T cell based therapies according to the present invention were further tested for their MHC binding capacity (affinity). The individual peptide-MHC complexes were produced by UV-ligand exchange, where a UV-sensitive peptide is cleaved upon UV-irradiation, and exchanged with the peptide of interest as analyzed. Only peptide candidates that can effectively bind and stabilize the peptide-receptive MHC molecules prevent dissociation of the MHC complexes. To determine the yield of the exchange reaction, an ELISA was performed based on the detection of the light chain (β2m) of stabilized MHC complexes. The assay was performed as generally described in Rodenko et al. (Rodenko et al., 2006).
(§2) 96 well MAXISorp plates (NUNC) were coated over night with 2 ug/ml streptavidin in PBS at room temperature, washed 4× and blocked for 1 h at 37° C. in 2% BSA containing blocking buffer. Refolded HLA-A*02:01/MLA-001 monomers served as standards, covering the range of 15-500 ng/ml. Peptide-MHC monomers of the UV-exchange reaction were diluted 100-fold in blocking buffer. Samples were incubated for 1 h at 37° C., washed four times, incubated with 2 ug/ml HRP conjugated anti-β2m for 1 h at 37° C., washed again and detected with TMB solution that is stopped with […]. Absorption was measured at 450 nm. Candidate peptides that show a high exchange yield (preferably higher than 50%, most preferred higher than 75%) are generally preferred for a generation and production of antibodies or fragments thereof, and/or T cell receptors or fragments thereof, as they show sufficient avidity to the MHC molecules and prevent dissociation of the MHC complexes.

Binder	peptide exchange yield
B1	20 to 50%
B2	20 to 50%
B3	20 to 50%
B4	50 to 75%
B5	50 to 75%
B6	50 to 75%
B7	50 to 75%
B8	20 to 50%
B9	20 to 50%
B10	20 to 50%
B11	50 to 75%
B12	20 to 50%
B13	20 to 50%
B14	20 to 50%

Target: T2, HLA-A*03:01 (human)
T2 construct: Peptide-receptive MHC class I monomer made by UV cleavage of a UV-sensitive ligand
Experiment: UV ligand exchange ELISA; exchange yield grade
Source text: as §1, §2

Binder	peptide exchange yield
B15	50 to 75%
B16	20 to 50%
B17	10 to 20%
B18	20 to 50%
B19	20 to 50%
B20	20 to 50%
B21	50 to 75%
B22	50 to 75%
B23	10 to 20%
B24	20 to 50%
B25	20 to 50%
B26	20 to 50%
B27	20 to 50%
B28	20 to 50%
B29	20 to 50%
B30	20 to 50%
B31	50 to 75%
B32	20 to 50%

Binder	peptide exchange yield
B33	50 to 75%
B34	20 to 50%
B35	50 to 75%
B36	50 to 75%
B37	50 to 75%
B38	20 to 50%
B39	50 to 75%
B40	20 to 50%
B41	20 to 50%
B42	50 to 75%
B43	50 to 75%
B44	20 to 50%
B45	20 to 50%
B46	50 to 75%
B47	20 to 50%
B48	20 to 50%
B49	20 to 50%
B50	20 to 50%

Target: T3, HLA-A*01:01 (human)
T3 construct: Peptide-receptive MHC class I monomer made by UV cleavage of a UV-sensitive ligand
Experiment: UV ligand exchange ELISA; exchange yield grade
Source text: as §1, §2

Binder	peptide exchange yield
B51	20 to 50%
B52	50 to 75%
B53	50 to 75%
B54	50 to 75%
